How the values were obtained:
[1] = biological target: the molecule itself; experiment: SEC; Superdex 75 (10/300GL), 20 mM citric acid pH 5.0, 150 mM NaCl, 2 mM β-mercaptoethanol; single peak at 26 kDa
[2] = biological target: T1, MtHigA3 (Mycobacterium tuberculosis H37Rv, UniProt O53333 1-109); experiment: EMSA; 0.1-0.6 uM protein, 0.01 uM DNA; details: protein: recombinant; tags: C-terminal […]; chain copies: 2; blunt
T1 sequence: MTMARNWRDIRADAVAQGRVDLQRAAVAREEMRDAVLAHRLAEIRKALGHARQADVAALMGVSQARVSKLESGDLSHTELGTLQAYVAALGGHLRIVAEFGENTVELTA

Binder | stoichiometry N [1] | binding result [2]
M. tuberculosis HigA3 antitoxin (natural protein, also called MtHigA3) MTMARNWRDIRADAVAQGRVDLQRAAVAREEMRDAVLAHRLAEIRKALGHARQADVAALMGVSQARVSKLESGDLSHTELGTLQAYVAALGGHLRIVAEFGENTVELTA | 2 | 
DNA4 (DNA-4, palindrome around -10 box) (dsDNA) DNA 1: AGATATAACCTAGAGGTTATACTG DNA 2: CAGTATAACCTCTAGGTTATATCT |  | no binding
DNA1 (DNA-1, -35 box) (dsDNA) DNA 1: CCGACGATGACCGCGCAC DNA 2: GTGCGCGGTCATCGTCGG |  | no binding
